Laboratory results reported in patent publication US20220323495A1 (NATIONAL RESEARCH COUNCIL OF CANADA, published 2022).

Legend:
[1] = target: T1, recombinant human wild-type EGFR protein, native (human, UniProt P00533 25-645); test: ELISA on coated native recombinant antigen; Exp 1, mAb supernatant
T1 construct: Recombinant protein used as ELISA coat; also called EGFRwt; wt EGFR
Procedure: (§1) Pre- and post-immune sera titers of animals were assessed by ELISA on recombinant EGFRvIII protein. Unless otherwise stated, all incubations were performed at room temperature. Briefly, half-area 96-well plates (Costar #3690) were coated with 25 μl per well of immunogen at 5 μg/ml in PBS and incubated overnight at 4° C. Microplates were washed three times in PBS and blocked for 30 min with PBS containing 1% bovine serum albumin (BSA, Sigma Cat#A7030). Blocking buffer was removed and 25 μl of serial dilutions of sera samples were added. After a 2-h incubation, microplates were washed 4 times with PBS-TWEEN™ 20 0.05% and 25 μl of a 1/5,000 dilution of alkaline phosphatase conjugated F(ab′)′₂ goat anti-mouse IgG (H+L, #115-056-062, Jackson Immunoresearch, Cedarlane, Burlington, ON) in blocking buffer was added. After a 1-h incubation, microplates were washed 4 times and 25 μl of p-nitrophenyl phosphate (pNPP) substrate (Sigma-Aldrich Canada Co., Oakville, ON) at 1 mg/ml in carbonate buffer at pH 9.6 was added and further incubated for 30 min. Absorbance was read at 405 nm using a SpectraMax 340 PC plate reader (Molecular Devices, Sunnyvale, Calif.).
(§2) To evaluate if monoclonal antibodies bind to a conformational epitope, an ELISA analysis on native and denatured recombinant human wild-type EGFR and EGFRvIII proteins were performed. […] Antigens at 1-2 mg/ml were denatured by incubation at 95° C. for 5 min in PBS containing DTT at 40 mM final concentration. They were then incubated on ice for 5 min and diluted at their final coating concentration for ELISA purpose.
(§3) mAbs were purified using HiTrap ProteinG HP 1 mL columns GE Healthcare cat no. 17-0404-01 and desalted using Zeba-spin desalting columns 5 mL (Pierce) pre-equilibrated in PBS and filter sterilized through […] membrane (Millipore). The final concentration of the antibody solutions was determined using a Nano-drop 2000 (ThermoScientific), using IgG as sample type. ELISA was performed as described above (serum titer determination) using 25 μl of mAb supernatant (Exp 1) or purified mAb at 1 μg/ml (Exp 2).

[2] = target: T2, recombinant human EGFRvIII protein, native (human, UniProt P00533 298-623); test: as above
T2 construct: Recombinant extracellular domain used as immunogen and ELISA coat; also called EGFRvIII Native
Procedure: as §1, §2, §3

[3] = target: T3, human EGFRvIII amino acid residues 15 to 37, yeast-displayed (human, not fully specified); test: yeast display; smallest EGFRvIII fragment the antibody was able to bind
T3 construct: also called EGFRvIII 15-37 fragment; aa 15-37
T3 peptide: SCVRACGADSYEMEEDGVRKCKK
Description: (§4) Assessment of the binding of anti-EGFRvIII monoclonal antibodies to the fusion proteins expressed on yeast cell surface was done by flow cytometry analysis. Yeast cells were labeled with both the anti-EGFRvIII monoclonal antibody and chicken anti-Myc antibody the latter being used to monitor the level of expression of the fusion protein. Following a wash step, binding of the primary antibodies is probed by a two-color indirect fluorescence labeling using a specific mouse and chicken secondary antibodies for each of the primary antibody respectively.

[4] = target: T4, recombinant human EGFRvIII protein, denatured (human, UniProt P00533 298-623); test: ELISA on coated denatured recombinant antigen; Exp 2, purified mAb 1 µg/ml
T4 construct: Same protein as m9 after denaturation (95 °C for 5 min in PBS with 40 mM DTT); also called EGFRvIII Denatured
Procedure: as §1, §2, §3

[5] = target: T5, recombinant human wild-type EGFR protein, denatured (human, UniProt P00533 25-645); test: as above
T5 construct: Same protein as m11 after denaturation (95 °C for 5 min in PBS with 40 mM DTT); also called EGFRwt Denatured
Procedure: as §1, §2, §3

[6] = target: T6, EGFRvIII amino acid residues 15 to 37 with Ser15 to Ala mutation, yeast-displayed (human, not fully specified); test: flow cytometry on yeast displaying the Ala-mutated 15-37 fragment; normalized to Myc-tag; wild-type fragment = 100%
T6 construct: The entry already carries the mutation
T6 peptide: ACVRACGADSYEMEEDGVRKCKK
Description: as §4
(§5) To further characterize mAb epitopes within the EGFRvIII 15-37 region, an alanine scan of this region was performed, and modified fragments were expressed at the surface of the yeast. […] The resulting DNAs were expressed at the surface of the yeast and each anti-EGFRvIII mAbs was tested on the corresponding yeast mutant strain by flow cytometry analysis. The original Ala19 and Ala22 were not mutated. Thus, this assay determined the contribution of each amino acid(s) in mAb binding in comparison to the original wild-type fragment (SEQ ID NO:5) which is attributed the value of 100%.

[7] = target: T7, EGFRvIII amino acid residues 15 to 37 with Asp30 to Ala mutation, yeast-displayed (human, not fully specified); test: as above
T7 construct: The entry already carries the mutation
T7 peptide: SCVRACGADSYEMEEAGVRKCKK
Description: as §4, §5

[8] = target: T8, EGFRvIII amino acid residues 15 to 37 with Val32 to Ala mutation, yeast-displayed (human, not fully specified); test: as above
T8 construct: The entry already carries the mutation
T8 peptide: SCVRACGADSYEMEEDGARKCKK
Description: as §4, §5

[9] = target: T9, EGFRvIII amino acid residues 15 to 37 with Lys34 to Ala mutation, yeast-displayed (human, not fully specified); test: as above
T9 construct: The entry already carries the mutation
T9 peptide: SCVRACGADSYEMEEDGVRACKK
Description: as §4, §5

[10] = target: T10, EGFRvIII amino acid residues 15 to 37 with Lys37 to Ala mutation, yeast-displayed (human, not fully specified); test: as above
T10 construct: The entry already carries the mutation
T10 peptide: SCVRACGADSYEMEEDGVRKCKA
Description: as §4, §5

[11] = target: T11, EGFRvIII amino acid residues 15 to 37 with Val17 to Ala mutation, yeast-displayed (human, not fully specified); test: as above
T11 construct: The entry already carries the mutation
T11 peptide: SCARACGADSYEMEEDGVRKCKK
Description: as §4, §5

B1: F265-5B7 anti-EGFRvIII monoclonal antibody (antibody, V domains shown)
VH: QIQLVQSGPELKKPGETVMISCKASGYSFTNYGMNWVKQAPEKDLKWMGWINTYTGESRYVDEFKGRFAFSLETSVSIVYLKINNLKNEDMATYFCARGPNFDVWGTGTTVTVSS
VL: not shown
notes: Mouse hybridoma IgG, tested as supernatant or Protein G purified mAb; also called 5B7-2
ELISA absorbance (405 nm) [1]: 0.008 A405 | ELISA absorbance (405 nm) [2]: 1.14 A405 | binding result [3]: binds | ELISA absorbance (405 nm) [4]: 0.623 A405 | ELISA absorbance (405 nm) [5]: 0 A405 | % of binding compared to the wild-type sequence [6]: 91.6% | % of binding compared to the wild-type sequence [7]: 106% | % of binding compared to the wild-type sequence [8]: 101% | % of binding compared to the wild-type sequence [9]: 193% | % of binding compared to the wild-type sequence [10]: 143%

B2: F269-3D12 anti-EGFRvIII monoclonal antibody (antibody, V domains shown)
VH: EVQLQQSGPELVKPGSSVRISCKASGYTFTDYNMDWVKQSHGKSLEWIGTINPNNGGTSYNQKFKGKATLTVDKSSSTAYMELRSLTSEDSAVYYCARVRQLGLWFAYWGQGTLVTVSA
VL: EIVLTQSPALMAASPGEKVTITCSVSSSISSSNLHWYQQKSETSPKPWIYGTSNLASGVPVRFSGSGSGTSYSLTISSMEAEDAATYYCQQWSSYPLTFGSGTKLEIK
notes: Mouse hybridoma IgG, tested as supernatant or Protein G purified mAb; also called 3D12-2
ELISA absorbance (405 nm) [1]: 0.095 A405 | ELISA absorbance (405 nm) [2]: 1.17 A405 | binding result [3]: binds | ELISA absorbance (405 nm) [4]: 0.517 A405 | ELISA absorbance (405 nm) [5]: 0.001 A405 | % of binding compared to the wild-type sequence [6]: 90.2% | % of binding compared to the wild-type sequence [11]: 116% | % of binding compared to the wild-type sequence [7]: 78.5% | % of binding compared to the wild-type sequence [8]: 93.8% | % of binding compared to the wild-type sequence [9]: 137% | % of binding compared to the wild-type sequence [10]: 162%
